From PMC2148182 (The Journal of Cell Biology, 1998)
Read-outs that look alike come from different tables or passages of the source.

Experiments:
[1] = molecular target: T1, yeast actin monomers (yeast (S. cerevisiae), UniProt P60010 1-375); test: co-sedimentation
[2] = molecular target: T1, yeast actin monomers; test: co-sedimentation; remark: listed apart in the source

B1: full-length twinfilin (yeast, recombinant) (natural protein)
chain: MATQSGIVAEQALLHSLNENLSADGIVIIIAKISPDSTSVHQTQVARSFEELVQLASQEREPLYIFYKPEGLDKYFFVSFIPDGSPVRSRMLYASTKNTLARQVGSNSLSTEQPLITDAQDLVDLKNFDSARPAGQNKPLTHDEEMQIEINKQQALLRKNTSVKLVSQDSASPLSLTFRVNSEKPINEILDSEGKNLIIFQIDPSNETIQIVQSDTCPSVDELYIDLPGPSYTIFRQGDSSFFIYSCPSGSKVKDRMIYASNKNGFINYLKNDQKIAFSKVVEIGDFVELDKSLLMATNKEDSLDHGSNPDLPNKSNLKFNKPKGPLRKRRT
[1]
  stoichiometry N: 1 twinfilin:actin
[2]
  stoichiometry N: ~1 twinfilin:actin
